Measurements as given in patent publication US20070231897A1, “Induction of Insulin Secreting Cell” (KYOTO UNIVERSITY, priority 2004, published 2007).

System: pancreatic acinar cells
Test: Effect of growth factors on insulin-positive cell induction in main culture of pancreatic acinar cells
Type: cell-based, mouse
Settings: day 7 of culture; EGF 20 ng/ml, HGF, FGF7 and FGF10 10 ng/ml, GLP-1 30 ng/ml; rank among growth factors (FIG. 8B)
Protocol: Eight-week old male mice (C57B1/6Cr Slc)(Japan SLC, Inc.: Hamamatsu, Japan) were anesthetized with 50 mg/kg of Nembtal (Dainippon Pharma Co., Ltd.: Osaka, Japan) and subjected to laparotomy. The choledoch duct was ligated near the position where it opens to the duodenum. Using a 27G winged needle (Terumo Corporation: Tokyo, Japan), 2-3 ml of Hank's buffer containing 0.05% collagenase P (Roche: Basel, Switzerland) and 10% fetal bovine serum was infused from the liver side. The pancreas, now swollen, was extracted and digested in 5 ml of Hank's buffer per pancreas for 18 minutes at 37° C. The digested pancreas then was made to pass through a 14G indwelling needle in both directions twice to disperse the pancreatic cells, which washed well with Hank's buffer containing 0.1% bovine serum albumin (Sigma: Saint Louis, Mo., USA). The pancreatic cells thus obtained were suspended in a mixed solution (solution A) consisting of 8.3% Ficoll 400 (Amersham Bioscience: Uppsala, Sweden) and 16.7% Conray 400 (Daiichi Pharmaceutical, Tokyo, Japan), and after a 87.5%-diluted solution of solution A and then a 50%-diluted solution of solution A were placed on it in the order, centrifuged (2,000 rpm, 10 min). […]

B1: fibroblast growth factor 10 (protein, UniProt O15520 38-208, looked up)
Fibroblast growth factor 10: QALGQDMVSPEATNSSSSSFSSPSSAGRHVRSYNHLQGDVRWRKLFSFTKYFLKIEKNGKVSGTKKENCPYSILEITSVEIGVVAVKAINSNYYLAMNKKGKLYGSKEFNNDCKLKERIEENGYNTYASFNWQHNGRQMYVALNGKGAPRRGQKTRRKNTSAHFLPMVVHS
notes: fibroblast growth factor 10 (R&D Systems), growth factor added to the culture medium
- proportion of insulin-positive cells: this was followed by FGF10 and HGF
